In publication PMC4141020 (Traffic (Copenhagen, Denmark), 2014):

Biological target: T1, Mpl expressed as an mKO2 fusion protein (Mpl^mKO2) (human, UniProt P40238 26-635)
T1 sequence (looked up): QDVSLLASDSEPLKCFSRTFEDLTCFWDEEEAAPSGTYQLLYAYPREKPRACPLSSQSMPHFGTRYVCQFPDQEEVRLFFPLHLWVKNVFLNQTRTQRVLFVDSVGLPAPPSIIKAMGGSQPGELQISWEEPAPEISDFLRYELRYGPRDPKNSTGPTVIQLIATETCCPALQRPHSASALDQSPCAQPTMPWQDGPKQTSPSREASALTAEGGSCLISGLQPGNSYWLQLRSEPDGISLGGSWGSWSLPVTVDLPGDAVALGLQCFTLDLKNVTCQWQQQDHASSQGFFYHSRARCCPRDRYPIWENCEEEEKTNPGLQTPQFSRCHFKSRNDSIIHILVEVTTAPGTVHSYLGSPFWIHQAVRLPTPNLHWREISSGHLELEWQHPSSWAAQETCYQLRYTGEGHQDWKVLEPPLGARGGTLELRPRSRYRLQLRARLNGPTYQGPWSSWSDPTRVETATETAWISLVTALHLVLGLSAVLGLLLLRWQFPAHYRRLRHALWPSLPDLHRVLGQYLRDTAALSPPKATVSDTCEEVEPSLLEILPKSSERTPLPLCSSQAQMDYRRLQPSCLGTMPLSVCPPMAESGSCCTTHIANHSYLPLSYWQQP
Test: co-IP

fold more co-immunoprecipitated than Jak2V617F with endogenous Mpl in HEL cells: ~8 fold
B1: Jak2WT (endogenous wildtype Jak2 of K562 cells) (enzyme, human (endogenous in K562), UniProt O60674 1-1132, looked up)
chain: MGMACLTMTEMEGTSTSSIYQNGDISGNANSMKQIDPVLQVYLYHSLGKSEADYLTFPSGEYVAEEICIAASKACGITPVYHNMFALMSETERIWYPPNHVFHIDESTRHNVLYRIRFYFPRWYCSGSNRAYRHGISRGAEAPLLDDFVMSYLFAQWRHDFVHGWIKVPVTHETQEECLGMAVLDMMRIAKENDQTPLAIYNSISYKTFLPKCIRAKIQDYHILTRKRIRYRFRRFIQQFSQCKATARNLKLKYLINLETLQSAFYTEKFEVKEPGSGPSGEEIFATIIITGNGGIQWSRGKHKESETLTEQDLQLYCDFPNIIDVSIKQANQEGSNESRVVTIHKQDGKNLEIELSSLREALSFVSLIDGYYRLTADAHHYLCKEVAPPAVLENIQSNCHGPISMDFAISKLKKAGNQTGLYVLRCSPKDFNKYFLTFAVERENVIEYKHCLITKNENEEYNLSGTKKNFSSLKDLLNCYQMETVRSDNIIFQFTKCCPPKPKDKSNLLVFRTNGVSDVPTSPTLQRPTHMNQMVFHKIRNEDLIFNESLGQGTFTKIFKGVRREVGDYGQLHETEVLLKVLDKAHRNYSESFFEAASMMSKLSHKHLVLNYGVCVCGDENILVQEFVKFGSLDTYLKKNKNCINILWKLEVAKQLAWAMHFLEENTLIHGNVCAKNILLIREEDRKTGNPPFIKLSDPGISITVLPKDILQERIPWVPPECIENPKNLNLATDKWSFGTTLWEICSGGDKPLSALDSQRKLQFYEDRHQLPAPKWAELANLINNCMDYEPDFRPSFRAIIRDLNSLFTPDYELLTENDMLPNMRIGALGFSGAFEDRDPTQFEERHLKFLQQLGKGNFGSVEMCRYDPLQDNTGEVVAVKKLQHSTEEHLRDFEREIEILKSLQHDNIVKYKGVCYSAGRRNLKLIMEYLPYGSLRDYLQKHKERIDHIKLLQYTSQICKGMEYLGTKRYIHRDLATRNILVENENRVKIGDFGLTKVLPQDKEYYKVKEPGESPIFWYAPESLTESKFSVASDVWSFGVVLYELFTYIEKSKSPPAEFMRMIGNDKQGQMIVFHLIELLKNNGRLPRPDGCPDEIYMIMTECWNNNVNQRPSFRDLALRVDQIRDNMAG
